Source: patent publication US20210107983A1 (Boehringer Ingelheim, published 2021)

How the values were obtained:
[1] = molecular target: T1, human B7H6 on HCT-15 cells (human, UniProt Q68D85 25-454); assay: cell-based or functional assay
T1 sequence (looked up): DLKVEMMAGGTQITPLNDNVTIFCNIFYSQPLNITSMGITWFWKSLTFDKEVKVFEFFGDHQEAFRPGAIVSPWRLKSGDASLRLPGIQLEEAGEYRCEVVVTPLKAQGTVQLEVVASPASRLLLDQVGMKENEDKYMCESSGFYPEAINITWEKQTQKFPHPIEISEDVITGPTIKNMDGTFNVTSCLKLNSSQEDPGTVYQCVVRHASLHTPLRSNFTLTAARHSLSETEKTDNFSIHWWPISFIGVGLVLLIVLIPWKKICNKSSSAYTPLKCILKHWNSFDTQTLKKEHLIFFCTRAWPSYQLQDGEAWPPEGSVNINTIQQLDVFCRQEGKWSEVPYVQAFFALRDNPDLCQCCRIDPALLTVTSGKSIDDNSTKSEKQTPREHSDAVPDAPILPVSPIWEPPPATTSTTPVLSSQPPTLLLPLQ

[2] = molecular target: T1, human B7H6 on HCT-15 cells; assay: flow cytometry on HCT-15 cells, PE anti-human secondary antibody
Method: Binding of B7H6/CD3 binding proteins to HCT-15, a human (colo-rectal cancer) CRC cell line was tested by flow cytometry. In a previous experiment, it has been confirmed that HCT-15 cells expresses B7-H6 on the RNA levels as well as the protein level with approximately 8,000 B7-H6 receptors on the cell surface (data not shown). B7H6/CD3 binding proteins were produced, as described in Example 2. HCT-15 cells were stained with increasing concentrations of two-step purified B7H6/CD3 binding proteins in FACS buffer (PBS/0.5% BSA/0.05% sodium azide). Bound molecules were detected with PE-conjugated anti-human secondary antibody (Sigma-Aldrich, #P8047).

[3] = molecular target: T2, Fc-His-tagged human B7H6 ECD (human); assay: ELISA, plate coated with Fc-His-tagged human B7H6 ECD, anti-human IgG F(ab')2-peroxidase, TMB
T2 construct: also called huB7H6-ECD-Fc-His; recombinant human B7H6 ECD

[4] = molecular target: T3, Fc-His-tagged human Ala-mutated B7H6 ECD (human); assay: ELISA, plate coated with Fc-His-tagged human Ala-mutated B7H6 ECD, anti-human IgG F(ab')2-peroxidase, TMB
T3 construct: also called huB7H6-Ala-ECD
Method: To assess binding of B7H6/CD3 binding proteins to recombinant human Fc-His-tagged B7H6 ECD and human Fc-His-tagged Ala-mutated B7H6 extracellular proteins as described in Example 3, MediSorp™ plates (Nunc, 467320) were coated with […] recombinant proteins overnight at 4° C. The next day, plates were blocked with 0.5% bovine serum albumin (BSA) in phosphate buffered saline (PBS) for 1 hour at room temperature (RT). Subsequently plates were washed with […] containing 0.05% TWEEN®20 viscous liquid and B7H6/CD3 binding proteins were incubated at concentrations ranging from 0.00001 to 10 μg/ml. After an additional washing step, bound B7H6/CD3 binding proteins were detected by a peroxidase conjugated goat anti-human IgG F(ab′)₂-specific secondary antibody (Jackson Immunoresearch) and visualized by TMB substrate solution (Bender Med Systems).

B1: B7H6#8/CD3#1 (bispecific antibody, human IgG1, kappa, lambda, L234A L235A)
chain 1: DIVMTQSPLSLPVTPGEPASISCRSSQSLLYNNRYNYLDWYLQKPGQSPEVLIYLGSNRASGVPDRFSGSGSGTDFTLKISRVEAEDFGVYYCMQTLQIPITFGQGTRLEIKRTVAAPSVFIFPPSDEQLKSGTASVVCLLNNFYPREAKVQWKVDNALQSGNSQESVTEQDSKDSTYSLSSTLTLSKADYEKHKVYACEVTHQGLSSPVTKSFNRGECGGGGSEGKSSGSGSESKSTEGKSSGSGSESKSTGGGGSQVQVVQSGAEVKKPGSSVKVSCKGSGDTLNSYGISWMRQAPGQGLEWMGGIIPIFDTTKYAQKFQGRVTITADKSTTTVYMELSSLRFEDTAVYYCARERGYRFSEDYYFYYGMDVWGQGTTVTVSSASTKGPSVFPLAPSSKSTSGGTAALGCLVKDYFPEPVTVSWNSGALTSGVHTFPAVLQSSGLYSLSSVVTVPSSSLGTQTYICNVNHKPSNTKVDKRVEPKSCDKTHTCPPCPAPEAAGGPSVFLFPPKPKDTLMISRTPEVTCVVVDVSHEDPEVKFNWYVDGVEVHNAKTKPREEQYNSTYRVVSVLTVLHQDWLNGKEYKCKVSNKALPAPIEKTISKAKGQPREPQVYTLPPSREEMTKNQVSLWCLVKGFYPSDIAVEWESNGQPENNYKTTPPVLDSDGSFFLYSKLTVDKSRWQQGNVFSCSVMHEALHNHYTQKSLSLSPG
chain 2: EAVVTQEPSLTVSPGGTVTLTCRSSTGAVTTSNYANWVQEKPGQLPRGLIGGTNKRAPWVPARFSGSLLGGKAALTLSGAQPEDEAEYFCALWYSNLWVFGGGTKLTVLGQPKAAPSVTLFPPSSEELQANKATLVCLISDFYPGAVKVAWKADGSPVNTGVETTTPSKQSNNKYAASSYLSLTPEQWKSHRSYSCQVTHEGSTVEKTVAPAECSGGGGSEGKSSGSGSESKSTEGKSSGSGSESKSTGGGGSEVQLVESGGGLVQPGGSLKLSCAASGFTFNTYAMNWVRQAPGKGLEWVARIRSKYNNYATYYADSVKDRFTISRDDSKNTAYLQMNNLKTEDTAVYYCVRHGNFGNSYVSWFAYWGQGTLVTVSAASTKGPSVFPLAPSSKSTSGGTAALGCLVKDYFPEPVTVSWNSGALTSGVHTFPAVLQSSGLYSLSSVVTVPSSSLGTQTYICNVNHKPSNTKVDKRVEPKSCDKTHTCPPCPAPEAAGGPSVFLFPPKPKDTLMISRTPEVTCVVVDVSHEDPEVKFNWYVDGVEVHNAKTKPREEQYNSTYRVVSVLTVLHQDWLNGKEYKCKVSNKALPAPIEKTISKAKGQPREPQVYTLPPSREEMTKNQVSLSCAVKGFYPSDIAVEWESNGQPENNYKTTPPVLDSDGSFFLVSKLTVDKSRWQQGNVFSCSVMHEALHNRFTQKSLSLSPG
notes: scFab-Fc heterodimer, one B7H6 chain and one CD3 chain
EC50 [nM], 72 hour cytotoxicity assay, non-stimulated T-cells (Donor #1) as effector cells, HCT-15 cells as target cells [1]: 0.62 nM
EC50 (read off the curve) [2]: ~0.4 nM
EC50 (read off the curve) [3]: ~0.05 µg/mL
binding result [4]: no binding (tested: 10 µg/ml)
